For one substance, stoichiometry N results are on record in publication doi:10.1101/2025.04.09.647960.

This assay has as its target WT myostimulin (human C1orf54, residues 17-131) (human) (UniProt Q8WWF1). The assay is described as follows: RP-HPLC-MS.

Consider “WT myostimulin (human C1orf54, residues 17-131) (from UniProt Q8WWF1 17-131) (natural protein)”, for which the stoichiometry N (usually the number of molecules, sites or subunits per partner or assembly) was 2.
